Measurements taken from the supplement of paper PMC7877785.
± gives the uncertainty stated by the source.

Assay: self-splicing fitness, log relative to wild type (ln ratio); higher = more splicing; Tetrahymena group I intron in knt gene, E. coli kanamycin selection, DiMSum; sequences stand for … in CUCUCU…GGAGGGAAAAGUUAUCAGGCAUGCACCUGGUAGCUAGUCUUUAAACCAAUAGAUUGCAUCGGUUUAAAAGGCAAGACCGUCAAAUUGCGGGAAAGGGGUCAACAGCCGUUCAGUACCAAGUCUCAGGGGAAACUUUGAGAUGGCCUUGCAAAGGGUAUGGUAAUAAGCUGACGGACAUGGUCCUAACCACGCAGCCAAGUCCUAAGUCAACAGAUCUUCUGUUGAUAUGGAUGCAGUUCACAGACUAAAUGUCGGUCGGGGAAGAUGUAUUCUUCUCAUAAGAUAUAGUCGGACCUCUCCUUAAUGGGAGCUAGCGGAUGAAGUGAUGCAACACUGGAGCCGCUGGGAACUAAUUUGUAUGCGAAAGUAUAUUGAUUAGUUUUGGAGUACUCGUGGUCG
Method in brief: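 Library with all eight P1ex-region intron nucleotides randomised, intron inside the knt kanamycin-resistance gene on pET-22b(+), in E. coli BL21(DE3). Cells grew overnight at 37°C or 30°C on LB agar with or without 25 μg/mL kanamycin (plus 100 μg/mL carbenicillin, 50 μM IPTG, 0.2% rhamnose), in six replicate transformations. Pooled colonies were amplicon-sequenced on Illumina HiSeq 2500. DiMSum fitness is the error-weighted combination of wild-type-normalised replicate fold changes, kanamycin versus none.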

Sequence	self-splicing fitness (ln) (30 °C)	self-splicing fitness (ln) (37 °C)
GUUAAGCAAUAUUACGCUUU	-4.08 ± 0.43	-0.79 ± 0.22
GUUAAGCAAUAUUACGGCAU	-0.746 ± 0.12	0.0583 ± 0.18
GUUAAGCAAUAUUACGGCCU	-0.808 ± 0.29	0.635 ± 0.44
GUUAAGCAAUAUUACGGGAC	-1.6 ± 0.17	-0.964 ± 0.23
GUUAAGCAAUAUUACGGGGC	-3.5 ± 0.24	-2.58 ± 0.25
GUUAAGCAAUAUUACGGGUU	-3.44 ± 0.3	-2.98 ± 0.23
GUUAAGCAAUAUUACGGUAU	-1.36 ± 0.11	-0.895 ± 0.12
GUUAAGCAAUAUUACGUACU	-0.559 ± 0.15	-0.935 ± 0.14
GUUAAGCAAUAUUACGUAGG	-1.73 ± 0.1	-1.16 ± 0.17
GUUAAGCAAUAUUACGUAUG	-2.44 ± 0.12	-1.36 ± 0.13
GUUAAGCAAUAUUACGUCGC	-1.61 ± 0.21	-1.83 ± 0.28
GUUAAGCAAUAUUACGUCUU	-0.682 ± 0.09	-0.56 ± 0.11
GUUAAGCAAUAUUACGUUGU	-3.68 ± 0.16	-2.28 ± 0.2
GUUCAGCAAUAUUACGAACG	-2.55 ± 0.35	-0.953 ± 0.23
GUUCAGCAAUAUUACGAAGU	-0.606 ± 0.098	-0.391 ± 0.12
GUUCAGCAAUAUUACGAGAU	-2.51 ± 0.16	-0.359 ± 0.12
GUUCAGCAAUAUUACGAGCC	-3.38 ± 0.18	-2.48 ± 0.24
GUUCAGCAAUAUUACGAGUA	-1.66 ± 0.19	-0.65 ± 0.16
GUUCAGCAAUAUUACGAGUC	-1.32 ± 0.15	-0.628 ± 0.17
GUUCAGCAAUAUUACGAUUA	-0.665 ± 0.12	-0.545 ± 0.097
GUUCAGCAAUAUUACGCACG	-0.107 ± 0.22	-0.682 ± 0.31
GUUCAGCAAUAUUACGCCUA	-0.396 ± 0.15	0.127 ± 0.14
GUUCAGCAAUAUUACGCGGU	-1.52 ± 0.11	-1.69 ± 0.14
GUUCAGCAAUAUUACGGACG	-2.15 ± 0.11	-0.428 ± 0.11
GUUCAGCAAUAUUACGGAGC	-2.39 ± 0.32	-1.53 ± 0.42

Sequence	self-splicing fitness (ln) (30 °C)	self-splicing fitness (ln) (37 °C)
GUUCAGCAAUAUUACGGCAA	-0.436 ± 0.078	-0.458 ± 0.1
GUUCAGCAAUAUUACGGCCU	-1.02 ± 0.2	-0.57 ± 0.24
GUUCAGCAAUAUUACGGGAU	-2.24 ± 0.18	-1.58 ± 0.35
GUUCAGCAAUAUUACGGGCA		-1.11 ± 0.34
GUUCAGCAAUAUUACGGGCG	-1.57 ± 0.15	-0.592 ± 0.15
GUUCAGCAAUAUUACGGGGA	-4.6 ± 0.46	-2.56 ± 0.22
GUUCAGCAAUAUUACGGUCC	-0.652 ± 0.19	0.182 ± 0.23
GUUCAGCAAUAUUACGGUGA	-2.66 ± 0.17	-1.08 ± 0.13
GUUCAGCAAUAUUACGGUGU	-0.503 ± 0.05	0.262 ± 0.075
GUUCAGCAAUAUUACGUUAC	-1.98 ± 0.13	-1 ± 0.094
GUUCAGCAAUAUUACGUUGG	-2.92 ± 0.17	-1.62 ± 0.15
GUUGAGCAAUAUUACGAAAG	-2.93 ± 0.38	0.317 ± 0.17
GUUGAGCAAUAUUACGAACG		-1.12 ± 0.35
GUUGAGCAAUAUUACGACAA	-2.38 ± 0.33	-2.54 ± 0.44
GUUGAGCAAUAUUACGACAU	-0.358 ± 0.014	-0.067 ± 0.034
GUUGAGCAAUAUUACGACUA	-2.4 ± 0.18	-2.85 ± 0.22
GUUGAGCAAUAUUACGAGAA		-0.619 ± 0.5
GUUGAGCAAUAUUACGCAAA	-2.73 ± 0.35	-0.984 ± 0.14
GUUGAGCAAUAUUACGCACU	-1.26 ± 0.15	-0.723 ± 0.2
GUUGAGCAAUAUUACGCAUA	-2.36 ± 0.24	-1.1 ± 0.17
GUUGAGCAAUAUUACGCAUG	-2.87 ± 0.16	-1.18 ± 0.16
GUUGAGCAAUAUUACGCCAU		-1.09 ± 0.35
GUUGAGCAAUAUUACGCCGG		0.442 ± 0.29
GUUGAGCAAUAUUACGCGAG	-1.35 ± 0.18	-0.457 ± 0.17
GUUGAGCAAUAUUACGCUGA	-3.9 ± 0.35	-2.61 ± 0.24

Sequence	self-splicing fitness (ln) (30 °C)	self-splicing fitness (ln) (37 °C)
GUUGAGCAAUAUUACGGCGC	-0.744 ± 0.18	-0.21 ± 0.22
GUUGAGCAAUAUUACGGCGU	-1.02 ± 0.13	-0.302 ± 0.2
GUUGAGCAAUAUUACGGGUA	-2.46 ± 0.26	
GUUGAGCAAUAUUACGGUGA		-2.78 ± 0.44
GUUGAGCAAUAUUACGUAGC	-0.983 ± 0.2	-2.07 ± 0.35
GUUGAGCAAUAUUACGUAGU	-2.05 ± 0.15	-1.31 ± 0.18
GUUGAGCAAUAUUACGUCUU	-1.53 ± 0.17	-1.72 ± 0.2
GUUGAGCAAUAUUACGUGCU	-1.95 ± 0.35	
GUUGAGCAAUAUUACGUUAU	-3.37 ± 0.18	-0.445 ± 0.17
GUUUAGCAAUAUUACGAACU		-2.69 ± 0.44
GUUUAGCAAUAUUACGACGU	-0.531 ± 0.1	0.347 ± 0.14
GUUUAGCAAUAUUACGAGCG	-1.6 ± 0.12	-0.465 ± 0.12
GUUUAGCAAUAUUACGAGUC		-0.725 ± 0.21
GUUUAGCAAUAUUACGAUCA	-1.38 ± 0.31	-0.619 ± 0.16
GUUUAGCAAUAUUACGCACA	-0.867 ± 0.12	-0.0205 ± 0.14
GUUUAGCAAUAUUACGCAUA	-1.69 ± 0.18	-1.19 ± 0.19
GUUUAGCAAUAUUACGCAUC	-1.28 ± 0.14	-1.04 ± 0.19
GUUUAGCAAUAUUACGCCCG	-3.02 ± 0.24	-1.18 ± 0.24
GUUUAGCAAUAUUACGCGUC	-1.79 ± 0.24	-0.647 ± 0.24
GUUUAGCAAUAUUACGCGUU	-1.75 ± 0.16	-0.943 ± 0.2
GUUUAGCAAUAUUACGCUCU	-0.694 ± 0.091	-0.764 ± 0.11
GUUUAGCAAUAUUACGCUUA	-1.24 ± 0.15	-0.129 ± 0.12
GUUUAGCAAUAUUACGCUUU	-2.38 ± 0.25	-0.513 ± 0.22
GUUUAGCAAUAUUACGGAAU	-2.56 ± 0.31	-1.26 ± 0.31
GUUUAGCAAUAUUACGGCAG	-2.12 ± 0.26	-1.66 ± 0.38

Sequence	self-splicing fitness (ln) (30 °C)	self-splicing fitness (ln) (37 °C)
GUUUAGCAAUAUUACGGCCU	-0.716 ± 0.15	0.714 ± 0.15
GUUUAGCAAUAUUACGGCUG	-1.79 ± 0.1	-0.169 ± 0.17
GUUUAGCAAUAUUACGGGCA	-1.85 ± 0.17	-0.96 ± 0.15
GUUUAGCAAUAUUACGGGCU	-3.45 ± 0.34	-0.606 ± 0.2
GUUUAGCAAUAUUACGGGGU	-3.3 ± 0.35	-2.29 ± 0.2
GUUUAGCAAUAUUACGGGUA	-3 ± 0.24	-1.61 ± 0.17
GUUUAGCAAUAUUACGUAAG	-0.762 ± 0.085	0.076 ± 0.15
GUUUAGCAAUAUUACGUCGC	-1.67 ± 0.16	-0.462 ± 0.18
GUUUAGCAAUAUUACGUGCU	-2.18 ± 0.16	-1.31 ± 0.17
GUUUAGCAAUAUUACGUGGG	-3.78 ± 0.37	-2.45 ± 0.23
GUUUAGCAAUAUUACGUGGU		-1.23 ± 0.44
UAAAAGCAAUAUUACGAGAU	-3.14 ± 0.13	-2.98 ± 0.2
UAAAAGCAAUAUUACGAUUU	-1.36 ± 0.11	-0.59 ± 0.11
UAAAAGCAAUAUUACGCAAC	-4.54 ± 0.34	-2.13 ± 0.21
UAAAAGCAAUAUUACGCAUC	-2.95 ± 0.15	-2.36 ± 0.21
UAAAAGCAAUAUUACGCCCG	-0.0582 ± 0.21	0.323 ± 0.23
UAAAAGCAAUAUUACGCCUC	-2.82 ± 0.43	
UAAAAGCAAUAUUACGGAAG	-2.03 ± 0.15	-0.624 ± 0.15
UAAAAGCAAUAUUACGGGCG	-0.0526 ± 0.069	0.305 ± 0.076
UAAAAGCAAUAUUACGGGUC	-3.09 ± 0.25	-2.82 ± 0.27
UAAAAGCAAUAUUACGGGUU	-3.85 ± 0.28	-1.48 ± 0.12
UAAAAGCAAUAUUACGUCCU	-0.564 ± 0.095	0.00684 ± 0.13
UAAAAGCAAUAUUACGUCGU	-3.29 ± 0.13	-2.17 ± 0.11
UAAAAGCAAUAUUACGUCUC	-3.48 ± 0.17	-3 ± 0.17
